The source of these data is the Immune Epitope Database (IEDB).

The target in the experiment is HLA-A*02:01. The experiment in a line: IEDB peptide-MHC binding, purified MHC/competitive/radioactivity; ≥ and ≤ were set here for values at or beyond the usual limits of such assays.
Where [1] appears, read: source organism: Vaccinia virus WR.
Setting [2] is: source organism: Mammarenavirus brazilense.
The mark [3] stands for this setting: source organism: Mammarenavirus machupoense.

The IC50 is the point on the concentration scale where inhibition reaches its midpoint.

Consider SMMNRDKIPI, for which, under setting [1], the IC50 was determined as 1360 nM.

For SMPASHNNLA, under setting [1], the IC50 was 1910 nM.

On to SMSSYDFST, for which the IC50 under setting [1] came to 0.34 nM.

In the case of SMTENVEEDL, the IC50 under setting [1] came to 755 nM.

Consider SMVISLLSMI, for which the IC50 under setting [1] is 79 nM.

As to SQEVRKYFCV, the IC50 under setting [1] is 1200 nM.

Turning to SQMTSTFIM, the IC50 under setting [1] came to 85 nM.

As for SQSERDNYI, the IC50 under setting [1] turned out to be 1190 nM.

SQYANCSSI: under setting [1], the IC50 was found to be 81 nM.

Consider SQYYFSMLV, for which the IC50 under setting [1] was found to be 13 nM.

Take STAVNEEWL: the IC50 under setting [1] came out at 4690 nM.

For STEERHIFL, the IC50 under setting [1] was 2250 nM.

On to STFIMLEGET, for which the IC50 under setting [1] came out at 3480 nM.

Turning to STIATYIDAL, the IC50 under setting [1] is 2780 nM.

For the sequence STIDGRIVTL, under setting [1], the IC50 is 736 nM.

With STLIVTIYV, the IC50 under setting [1] amounted to 677 nM.

Consider STYWVIPWEL, for which the IC50 under setting [1] came out at 76 nM.

For the sequence SVCNSLSQI, the IC50 under setting [1] is 1510 nM.

Take SVEKIADDRI: the IC50 under setting [1] is 3830 nM.

In the case of SVNIWAIIPL, the IC50 under setting [1] was determined as 1120 nM.

Take SVSESNIDL: the IC50 under setting [1] is 569 nM.

In the case of SVVIYDFLV, the IC50 under setting [1] amounted to 1.1 nM.

Consider SVVVPIKFI, for which the IC50 under setting [1] came to 2960 nM.

Regarding SVVVPIKFIA, under setting [1], the IC50 stood at 4060 nM.

Consider TAIFTDASTV, for which the IC50 under setting [1] stood at 4460 nM.

For TAKSSFVCGI, the IC50 under setting [1] was determined as 1130 nM.

Take TAYEINNEL: the IC50 under setting [1] was 925 nM.

For the sequence TIATYIDAL, the IC50 under setting [1] stood at 610 nM.

Consider TIATYIDALA, for which, under setting [1], the IC50 is 125 nM.

Turning to TIDFKLKYFL, the IC50 under setting [1] came out at 3030 nM.

With TIDGRIVTL, the IC50 under setting [1] amounted to 2170 nM.

Take TIDQTANVV: the IC50 under setting [1] worked out at 549 nM.

With TIGNQLYLTV, under setting [1], the IC50 amounted to 18 nM.

For the sequence TIIALLFAL, the IC50 under setting [1] was found to be 12 nM.

With TIIFVLISI, the IC50 under setting [1] came out at 1180 nM.

On to TIMGVIFLI, for which the IC50 under setting [1] was determined as 9.6 nM.

Regarding TINCDVGYEV, the IC50 under setting [1] stood at 385 nM.

Consider TINNLKMML, for which the IC50 under setting [1] came out at 193 nM.

For TISVVTLLCV, the IC50 under setting [1] is 3420 nM.

Turning to TLAPFNFLV, the IC50 under setting [1] was 0.22 nM.

On to TLDNILGIL, for which the IC50 under setting [1] turned out to be 67 nM.

With TLDTAIFTDA, the IC50 under setting [1] is 50 nM.

For the sequence TLFDDELYSI, under setting [1], the IC50 was 1.1 nM.

With TLFFTTTLFL, the IC50 under setting [2] amounted to 423 nM.

With TLFLILCYFI, the IC50 under setting [1] was determined as 21 nM.

As for TLFLLFLEI, under setting [1], the IC50 is 56 nM.

Consider TLIDDPDNNL, for which the IC50 under setting [1] was determined as 781 nM.

With TLKSFFAWSL, for the setting “source organism: Mammarenavirus whitewaterense”, the IC50 amounted to 1340 nM.

Take TLLCVLPAV: the IC50 under setting [1] amounted to 1 nM.

Take TLLCVLPAVV: under setting [1], the IC50 amounted to 2.5 nM.

Turning to TLRHIIGLLM, under setting [1], the IC50 stood at 748 nM.

In the case of TLSRHIFMA, under setting [1], the IC50 was 6.2 nM.

In the case of TLTNVVNIST, the IC50 under setting [1] was found to be 1240 nM.

As to TLVAIFSYI, under setting [1], the IC50 was 863 nM.

As to TLVDICFWST, the IC50 under setting [2] came to 13 nM.

Turning to TLWAIINTI, the IC50 under setting [1] turned out to be 9.4 nM.

As for TLYDFDYYI, the IC50 under setting [1] was found to be 0.18 nM.

For the sequence TLYDFDYYII, the IC50 under setting [1] amounted to 5.8 nM.

For TMFKIVYSL, the IC50 under setting [1] worked out at 9.3 nM.

For TMLMFIFTGI, the IC50 under setting [1] came out at 0.89 nM.

In the case of TMLSIILVI, under setting [1], the IC50 is 1.4 nM.

On to TMLSIILVII, for which the IC50 under setting [1] turned out to be 154 nM.

As for TMNSVVQAL, the IC50 under setting [3] came to 1250 nM.

For the sequence TMSAFLIVRL, the IC50 under setting [1] was found to be 448 nM.

As for TMVDKPTEL, the IC50 under setting [1] was found to be 185 nM.

For TTLSRHIFMA, the IC50 under setting [1] came to 399 nM.

For the sequence TTTSEVVDML, the concentration for half-maximal inhibition (IC50) under setting [1] was found to be 2520 nM.

In the case of TVASAQIHL, the IC50 under setting [1] was found to be 3130 nM.

For TVIHLEWLL, under setting [1], the IC50 was determined as 5.6 nM.

As to TVMNNLSEL, under setting [1], the IC50 was 533 nM.

With TVMVKINPTL, under setting [1], the half-maximal inhibitory concentration (IC50) came to 114 nM.

Consider TVSDYISEL, for which, under setting [1], the IC50 came out at 128 nM.

As to TVTNKEGVKI, the concentration for half-maximal inhibition (IC50) under setting [1] was 2880 nM.

For VIDEILFKV, the IC50 under setting [1] was 1.3 nM.

With VIFLISVIVL, the IC50 under setting [1] was 1540 nM.

For the sequence VIGLCIRISM, the IC50 under setting [1] turned out to be 735 nM.

On to VIHDYICWL, for which, under setting [1], the IC50 is 12 nM.

In the case of VILFIMFMLI, the IC50 under setting [1] worked out at 384 nM.

For the sequence VILSPPINA, the IC50 under setting [1] came to 872 nM.

In the case of VIVIYIFTV, the IC50 under setting [1] is 104 nM.

On to VLAIDFGNGA, for which, under setting [1], the IC50 worked out at 1440 nM.

Turning to VLDATNDGLI, under setting [1], the IC50 came out at 369 nM.

For the sequence VLDTTLYAV, under setting [1], the IC50 is 0.6 nM.

As to VLEYIYGGKT, the IC50 under setting [1] came to 1440 nM.

As to VLGKVTINNL, the IC50 under setting [1] was 1770 nM.

Take VLITMLSIIL: the IC50 under setting [1] stood at 124 nM.

In the case of VLITWLIDYV, the IC50 under setting [1] is 0.8 nM.

As for VLLDYGLHGL, under setting [1], the IC50 was 1.3 nM.

In the case of VLLTYFCFV, the IC50 under setting [1] is 0.28 nM.

In the case of VLMEAQQGI, under setting [1], the IC50 worked out at 7.1 nM.

As to VLNIVLFIL, the IC50 under setting [1] was found to be 393 nM.

For VLPAVVYST, the IC50 under setting [1] amounted to 113 nM.

Regarding VLPNKVRIFI, under setting [1], the IC50 stood at 1310 nM.

As to VLSNTSTAV, the IC50 under setting [1] stood at 16 nM.

As to VLSYVIGLL, under setting [3], the IC50 is 210 nM.

With VLVDNVDFA, the IC50 under setting [1] turned out to be 20 nM.

In the case of VLVDNVDFAT, under setting [1], the IC50 was 16 nM.

Regarding VLYDEFKCFI, the IC50 under setting [1] is 5.9 nM.

Consider VLYNGVNYL, for which the IC50 under setting [1] stood at 0.25 nM.

For VLYPVIFIT, under setting [1], the IC50 is 9.3 nM.

Turning to VMAYVGIKL, the IC50 under setting [1] amounted to 1300 nM.

Regarding VMDNDDNIL, the IC50 under setting [1] amounted to 719 nM.

Take VMISILNPV: the concentration for half-maximal inhibition (IC50) under setting [1] was 33 nM.

As to VMKLFTISV, the IC50 under setting [1] came out at 8 nM.

Consider VMNNLSELT, for which, under setting [1], the IC50 came to 2080 nM.

Regarding VMNNLSELTA, the IC50 under setting [1] was 453 nM.

On to VMTPSPFYT, for which the IC50 under setting [1] is 2660 nM.

For the sequence VMTPSPFYTV, the IC50 under setting [1] was 26 nM.

For VMVTITQNV, the IC50 under setting [1] was 37 nM.

Turning to VTINNLKMML, the IC50 under setting [1] was determined as 3060 nM.

Turning to VTLLCVLPA, the IC50 under setting [1] amounted to 76 nM.

Take VTLLCVLPAV: under setting [1], the IC50 worked out at 3.8 nM.

As for VTLQKVLHV, the IC50 under setting [1] stood at 622 nM.

Take VTMVDKPTEL: the IC50 under setting [1] stood at 3360 nM.

Consider VVCNDLYKV, for which, under setting [1], the IC50 came out at 174 nM.

Take VVLDATNDGL: under setting [1], the IC50 was found to be 1450 nM.

For VVMAYVGIKL, under setting [1], the IC50 is 219 nM.

Turning to VVSVDCNKEL, the IC50 under setting [1] was determined as 2430 nM.

Take VVTLLCVLPA: the IC50 under setting [1] stood at 262 nM.

Turning to VVVPIKFIA, the IC50 under setting [1] stood at 2840 nM.

Take VVYSTCTVPT: the IC50 under setting [1] is 2320 nM.

As to WLIGFDFDV, under setting [1], the IC50 stood at 0.06 nM.

Turning to WLLCKLSCA, the IC50 under setting [1] worked out at 151 nM.

For the sequence WLLGFIKCI, under setting [1], the IC50 is 25 nM.

For WLTSILLSL, the IC50 under setting [1] is 1.2 nM.

Consider WLYGYNFII, for which the IC50 under setting [1] was found to be 0.19 nM.

Consider YANCSSISI, for which, under setting [1], the IC50 amounted to 901 nM.

Turning to YANNDKFRL, under setting [1], the IC50 turned out to be 587 nM.

With YASIINRDI, the half-inhibitory concentration (IC50) under setting [1] is 2230 nM.

YAVTKTDGI: the IC50 under setting [1] is 3060 nM.

YAYGWIPET: the IC50 under setting [1] stood at 43 nM.

Turning to YIACRTSIV, the IC50 (source organism: Mammarenavirus choriomeningitidis) is 46 nM.

For the sequence YIDALAKNA, under setting [1], the IC50 is 473 nM.

Regarding YIDAYVSRL, the IC50 under setting [1] stood at 1.9 nM.

Turning to YIFAALGGSV, under setting [1], the IC50 is 45 nM.

Regarding YIIDKDTNSV, the IC50 under setting [1] came to 30 nM.

With YIIDWMVDI, the IC50 under setting [1] turned out to be 0.92 nM.

In the case of YIIKKNDIV, under setting [1], the IC50 is 2000 nM.

YIIKNTFNV: the IC50 under setting [1] came out at 0.54 nM.

Take YIIRVTTEL: the IC50 under setting [1] came to 36 nM.

Consider YIIRYPVKRI, for which the IC50 under setting [1] was 1020 nM.

On to YILCNMALL, for which, under setting [1], the IC50 stood at 0.38 nM.
